Measured values as given in patent publication US20200277349A1 (FRAUNHOFER GESELLSCHAFT ZUR F RDERUNG DER ANGEWANDTEN …, published 2020).

T1: human IL-1RAPL1 extracellular domain-Fc chimera (human, UniProt Q9NZN1 19-357)
T1 construct: extracellular domain; Coated on 96 well plates at 0.5 ug; also called IL-1RAPL1-Fc; immobilized IL-1RAPL1; not shown: Fc part of the chimera
T1 sequence (looked up): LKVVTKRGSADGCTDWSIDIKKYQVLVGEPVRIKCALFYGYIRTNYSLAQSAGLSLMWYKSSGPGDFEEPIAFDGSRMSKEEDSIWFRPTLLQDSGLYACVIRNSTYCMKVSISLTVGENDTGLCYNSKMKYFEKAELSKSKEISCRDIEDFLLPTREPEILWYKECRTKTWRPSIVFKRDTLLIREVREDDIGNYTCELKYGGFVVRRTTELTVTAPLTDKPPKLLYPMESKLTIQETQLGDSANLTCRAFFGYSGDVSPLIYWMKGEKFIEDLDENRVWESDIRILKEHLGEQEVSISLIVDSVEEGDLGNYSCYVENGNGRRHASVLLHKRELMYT


Experiments:
[1] = biological target: T1, human IL-1RAPL1 extracellular domain-Fc …; experiment: plate binding assay on immobilized IL-1RAPL1 extracellular domain-Fc chimera (FIG. 7B)
Procedure: (§1) After 24 h IL-6 concentration in the supernatants was measured using cytometric bead array, normalized results are shown. Data are means±SEM, n=7. (B) Binding kinetics of full length and cleaved IL-38 to immobilized IL-1RAPL1. […] IL-38 binding to the extracellular domain of the receptors was detected using biotinylated monoclonal IL-38 antibody. Data are means±SEM, n=5.*p<0.05, ANOVA with Bonferroni's correction.
(§2) The inventors performed a receptor binding assay as explained above. Both IL-38 isoforms bound to IL-1RAPL1 in this assay (FIG. 7B). However, binding kinetics seemed to differ slightly. […] IL-1RAPL1 knock-down in macrophages abrogated both, IL-6 induction by full-length 11-38 and IL-6 suppression by truncated IL-38 (FIG. 7C).

[2] = biological target: T1, human IL-1RAPL1 extracellular domain-Fc …; experiment: plate binding assay: IL-1RAPL1-Fc coated, IL-38 titrated, detected with biotinylated monoclonal IL-38 antibody
Procedure: as §1, §2

binding result [1]	binding result [2]	Binder
binds		recombinant human truncated (cleaved) IL-38 (IL-38aa20-152) (ligand, also called truncated IL-38) LYTRDGQLLVGDPVADNCCAEKICILPNRGLARTKVPIFLGIQGGSRCLACVETEEGPSLQLEDVNIEELYKGGEEATRFTFFQSSSGSAFRLEAAAWPGWFLCGPAEPQQPVQLTKESEPSARTKFYFEQSW
	binds	recombinant human full length IL-38 (IL-38aa1-152) (ligand) MCSLPMARYYIIKYADQKALYTRDGQLLVGDPVADNCCAEKICILPNRGLARTKVPIFLGIQGGSRCLACVETEEGPSLQLEDVNIEELYKGGEEATRFTFFQSSSGSAFRLEAAAWPGWFLCGPAEPQQPVQLTKESEPSARTKFYFEQSW
